Laboratory results from paper PMC6888640, “Key Factors for a One-Pot Enzyme Cascade Synthesis of High Molecular Weight Hyaluronic Acid” (International Journal of Molecular Sciences, 2019).
Each block holds one molecule with its values, some of them ahead of it.

Legend:
AtGlcAK = target: T1, AtGlcAK (Arabidopsis thaliana, UniProt Q93ZC9); settings: substrate inhibition; 5 mM GlcA, 5 mM MgCl2, 100 mM HEPES pH 7.5, 25 °C
T1 construct: gene GLCAK1
T1 sequence (Q93ZC9 1-362): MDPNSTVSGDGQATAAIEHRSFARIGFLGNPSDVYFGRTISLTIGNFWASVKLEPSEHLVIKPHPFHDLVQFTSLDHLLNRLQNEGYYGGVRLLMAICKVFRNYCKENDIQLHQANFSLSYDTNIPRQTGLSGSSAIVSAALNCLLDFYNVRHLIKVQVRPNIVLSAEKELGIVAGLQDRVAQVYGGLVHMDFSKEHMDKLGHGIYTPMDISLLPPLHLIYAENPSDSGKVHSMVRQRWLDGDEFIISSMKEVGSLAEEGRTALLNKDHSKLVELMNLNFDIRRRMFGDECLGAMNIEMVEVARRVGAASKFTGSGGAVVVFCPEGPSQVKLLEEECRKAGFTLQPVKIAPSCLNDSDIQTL
Excerpt: initial rates by multiplexed capillary electrophoresis; uncompetitive substrate-inhibition fit on AtGlcAK

[1] = substrate: O=c1ccn([C@@H]2O[C@H](COP(=O)(O)OP(=O)(O)OP(=O)(O)O)[C@@H](O)[C@H]2O)c(=O)[nH]1; test: initial rates by multiplexed capillary electrophoresis; Michaelis-Menten fit; assay type: biochemical, Arabidopsis thaliana; settings: 5 mM Glc-1-P, 15 mM MgCl2, 100 mM HEPES pH 8, 25 °C
Excerpt: (§1) initial rates by multiplexed capillary electrophoresis; Michaelis-Menten fit on AtUSP

[2] = substrate: O=P(O)(O)O[C@H]1O[C@H](CO)[C@@H](O)[C@H](O)[C@H]1O; test: as above; assay type: biochemical, Arabidopsis thaliana; settings: 5 mM UTP, 15 mM MgCl2, 100 mM HEPES pH 8, 25 °C
Excerpt: as §1

purified protein = substrate: Nc1ncnc2c1ncn2[C@@H]1O[C@H](COP(=O)(O)OP(=O)(O)OP(=O)(O)O)[C@@H](O)[C@H]1O; test: purified protein; settings: apparent, substrate-inhibition fit, 5 mM GlcA, 5 mM MgCl2, 100 mM HEPES pH 7.5, 25 °C

- AtGlcAK (AtGlcAK): 2.87 mM
Molecule: Nc1ncnc2c1ncn2[C@@H]1O[C@H](COP(=O)(O)OP(=O)(O)OP(=O)(O)O)[C@@H](O)[C@H]1O [ATP]

B1: AtUSP (Arabidopsis thaliana) (protein)
chain: ASTVDSNFFSSVPALHSNLGLLSPDQIELAKILLENGQSHLFQQWPELGVDDKEKLAFFDQIARLNSSYPGGLAAYIKTAKELLADSKVGKNPYDGFSPSVPSGENLTFGTDNFIEMEKRGVVEARNAAFVLVAGGLGERLGYNGIKVALPRETTTGTCFLQHYIESILALQEASNKIDSDGSERDIPFIIMTSDDTHSRTLDLLELNSYFGMKPTQVHLLKQEKVACLDDNDARLALDPHNKYSIQTKPHGHGDVHSLLYSSGLLHKWLEAGLKWVLFFQDTNGLLFNAIPASLGVSATKQYHVNSLAVPRKAKEAIGGISKLTHVDGRSMVINVEYNQLDPLLRASGFPDGDVNCETGFSPFPGNINQLILELGPYKDELQKTGGAIKEFVNPKYKDSTKTAFKSSTRLECMMQDYPKTLPPTARVGFTVMDIWLAYAPVKNNPEDAAKVPKGNPYHSATSGEMAIYRANSLILQKAGVKVEEPVKQVLNGQEVEVWSRITWKPKWGMIFSDIKKKVSGNCEVSQRSTMAIKGRNVFIKDLSLDGALIVDSIDDAEVKLGGLIKNNGWTMESVDYKDTSVPEEIRIRGFRFNKVEQLEKKLTQPGKFSVED
notes: full-length synthetic codon-optimized gene, pET-16b(+), N-terminal His10 tag, E. coli BL21(DE3), IMAC
- Km [1]: 440 µM
- Km [2]: 580 µM

B2: AtGlcAK (Arabidopsis thaliana) (protein)
chain: T1 sequence (Q93ZC9 1-362)
- Km (purified protein): 8560 µM
